The results in this text go back to US20110189154A1 (published 2011).

For the experiment, the target named is T1, Tsa1 (S. cerevisiae 2-Cys peroxyredoxin) (S. cerevisiae, UniProt P34760 2-196).
T1 construct: Endogenous yeast protein after H2O2 treatment of the cells; also called Tsa1 protein
T1 sequence (looked up): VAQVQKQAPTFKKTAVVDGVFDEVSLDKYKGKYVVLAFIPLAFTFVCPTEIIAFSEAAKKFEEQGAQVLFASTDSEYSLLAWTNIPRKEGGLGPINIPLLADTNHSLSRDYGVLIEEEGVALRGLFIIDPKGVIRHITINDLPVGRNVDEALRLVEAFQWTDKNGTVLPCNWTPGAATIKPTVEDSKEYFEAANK
As to the kind of experiment: Western blot of Srx1-HA after nonreducing/reducing SDS-PAGE (FIG. 7a). On the procedure: FIG. 7 illustrates the interaction between Tsa1 and Srx1 in a covalent (disulfide bridge) and noncovalent manner; FIG. 7a: Western blotting of the HA-tagged Srx1 protein (lanes 1, 2 and 3) or of HA-tagged Srx1^C84S (lane 4) expressed in a wild-type strain (WT) (lanes 1, 2, 4) or in Δtsa1 cells (lane 3) treated for 15 min with H₂O₂ (500 μM), after SDS-PAGE electrophoresis carried out under reducing (R) (lane 2) or nonreducing (NR) (lanes 1, 3, 4) conditions; FIG. 7b: the proteins copurified with the Srx1 tagged with 6His (lanes 2, 4) or the untagged Srx1 (lanes 1, 3) under nonreducing conditions are separated by SDS-PAGE under nonreducing (lanes 1, 2) or reducing (lanes 3, 4) conditions and visualized by Coomassie blue staining. The protein bands are identified by MALDI-TOF mass spectrometry as indicated;
(A) Cells containing a tagged (HA) copy of the Srx1 protein are treated with 500 μM of H₂O₂ for 15 minutes. […]
Background: A western blot detects proteins with antibodies after separation by electrophoresis.

B1: Srx1-HA (S. cerevisiae Srx1 with two HA epitopes at the C-terminal) (enzyme, not shown: small tags and cut ends)
chain: MSLQSNSVKPTEIPLSEIRRPLAPVLDPQKIDAMVATMKGIPTASKTCSLEQAEAAASAGELPPVDVLGVRVKGQTLYYAFGGCHRLQAYDRRARETQNAAFPVRCRVLPATPRQIRMYLGSSLDIE
modifications: Two HA epitopes fused at the C-terminal of Srx1 (letters not given, left out). In the assay Cys84 forms an intermolecular disulfide bridge with Tsa1.
notes: also called HA-tagged Srx1 protein
For B1, the binding result was “binds”.
